“And” between values parts separate entries of the source, which are not always exact repeats. Equal values may be shown once.
Assays:
Experiment in all cases: ELISA, His-PD1 on nickel plate, conjugate only control
[1] = target: His tagged canine PD1 (Sino) (canine)
[2] = target: His tagged mouse PD1 (Sino) (mouse) (UniProt Q02242)
[3] = target: His tagged rat PD1 (Sino) (rat) (UniProt D3ZIN8)
[4] = target: His tagged rhesus monkey PD1 (Sino) (rhesus monkey) (UniProt B0LAJ2)
His tagged rhesus monkey PD1 (Sino) (rhesus monkey), sequence (B0LAJ2 entry or part of it limits assumed, form in doubt): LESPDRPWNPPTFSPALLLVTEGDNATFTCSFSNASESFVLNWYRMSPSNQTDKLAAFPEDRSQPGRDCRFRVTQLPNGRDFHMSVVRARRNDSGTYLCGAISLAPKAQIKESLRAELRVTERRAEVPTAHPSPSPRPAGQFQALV

His tagged mouse PD1 (Sino) (mouse), sequence (Q02242 25-167 limits assumed): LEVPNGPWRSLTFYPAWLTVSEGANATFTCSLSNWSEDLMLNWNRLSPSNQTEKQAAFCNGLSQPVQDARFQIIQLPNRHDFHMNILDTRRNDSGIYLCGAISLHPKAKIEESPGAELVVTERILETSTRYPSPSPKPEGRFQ
His tagged rat PD1 (Sino) (rat), sequence (D3ZIN8 entry or part of it limits assumed, form in doubt): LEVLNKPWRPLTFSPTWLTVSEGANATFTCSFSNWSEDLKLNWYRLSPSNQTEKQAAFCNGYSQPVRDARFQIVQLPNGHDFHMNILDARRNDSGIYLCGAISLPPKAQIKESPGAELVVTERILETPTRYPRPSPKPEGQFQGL

horseradish peroxidase-labeled anti-rabbit antibody (conjugate only control)
OD [1]: 0.059 OD and 0.06 OD
OD [2]: 0.066 OD and 0.064 OD
OD [3]: 0.055 OD
OD [4]: 0.063 OD and 0.058 OD

— patent US20210236614A1
